Assay results from paper PMC6508825, “Rice plants have three homologs of glutathione synthetase genes, one of which, OsGS2, codes for hydroxymethyl‐glutathione synthetase” (Plant Direct, 2019).

Experiments:
Conditions in all cases: 1 mmol/L gamma-glutamylcysteine, 2 mmol/L ATP, 20 mmol/L MgCl2, 50 mmol/L KCl, 1 mmol/L DTT, Tris-HCl pH 8.0, 30 °C, apparent, 0.2-10 mmol/L amino acid
[1] = substrate: NCC(=O)O; assay: HPLC with fluorescence detection of monobromobimane-derivatized thiol peptide product, Michaelis-Menten fit; format: biochemical, Oryza sativa
From the text: HPLC with fluorescence detection of monobromobimane-derivatized thiol peptide product, Michaelis-Menten fit on MBP-OsGS2

purified protein = substrate: N[C@@H](CO)C(=O)O; assay: purified protein
[2] = substrate: NCC(=O)O; assay: HPLC with fluorescence detection of monobromobimane-derivatized thiol peptide product, Michaelis-Menten fit; format: biochemical, Oryza sativa; remark: listed apart in the source
From the text: HPLC with fluorescence detection of monobromobimane-derivatized thiol peptide product, Michaelis-Menten fit on MBP-OsGS3

[3] = substrate: NCC(=O)O; assay: as above; format: biochemical, Oryza sativa; remark: listed apart in the source
From the text: HPLC with fluorescence detection of monobromobimane-derivatized thiol peptide product, Michaelis-Menten fit on MBP-OsGS1

B1: MBP-OsGS2 (Oryza sativa Japonica Group) (protein)
chain: MAAAAARSGAHPPSFASSLGRCRVLPVVVVRRPGGAARPSPLLAPARCAAAVGTAAPKVEGGGRRSSEQGQLAVAPARLVDELVEEALVWSSQHGLVVGDKNHPRSGKAPGVGLLHAPFALLPMSFSKVYWDQAVELAPLFNELVDRVSLDGDFLQETLARTKEVDSFTGRLLDIHAKMMKLNKKEDVRLGLTRSDYMIDGATDQLLQVELNTISTSSNGLACGVCELHRNLIRQHERELGLDPESVVGNTAIAQHAEALAGAWAEFNNQSSVVLVVVQPEERYMYDQYWITVALREMYGVTTIRKTMAAIDAEGELRPDGTLTIDGLPVAVVYFRAGYTPNDYPSEAEWRARLLIECSSAIKCPSIAHHLVGTKKIQQELAKENVLERFLDNKADIEKVRKCFAGLWSLENDSIVMSAIESPELFVLKPQREGGGNNIYGDNLRETLISLKKDGSNELAAYILMQRIFPPASLCYLVRDGTCIRENAVSEFGIFGAYLRNKDRVIINDQCGYLMRTKAASLNEGGVVAGYAFLNSVFLT
notes: full-length ORF, MBP fusion (pMAL-c5X), expressed in E. coli NEB Express, amylose resin purified; MBP kept
Protein B1 has a Km [1] of 19300 ± 1100 µM, a Vmax [1] of 0.459 µmol/min/mg and a Km (purified protein) of 2640 ± 50 µM. The Vmax (purified protein) was 0.524 µmol/min/mg.

B2: MBP-OsGS3 (Oryza sativa Japonica Group) (protein)
chain: MSAAAEGRPPAAAAAGEMVREATAWCALHGLVVGDRADPRSGTVPGVGLVHAPFSLLPTHLPESHWRQACELAPIFNELVDRVSLDGDFLQDSLSKTKQVDDFTSRLLEIHRKMMEINKEENIRLGLHRSDYMLDSETNSLLQIELNTISASFPGLGSLVSELHRTLIDQYGHLFCLDSKRVPGNEASSQFAKALARAWDEFNVDSAVIMMIVQPEERNMYDQYWLAKHLKESHGITTIRKTLSEVEAEGHVLPDGTLVIDGKTVSVVYFRAGYTPNDYPSEAEWAARLLLEQSSAVKCPSISYHLVGTKKIQQELARPNVLERFLENKEEITKIRKCFAGLWSLDDEEIVKSAIQKPELFVLKPQREGGGNNIYGIDVRETLIRLQKEGGDALAAYILMQRIFPKASLSNLVRGGVCHEALTISELGIYGAYLRNNDKVVMNEQSGYLMRTKVSSSDEGGVAAGFAVLDSLYLTDKAM
notes: MBP kept
With B2 the Km [2] was 408 ± 5 µM and the Vmax [2] was 6.6 µmol/min/mg.

B3: MBP-OsGS1 (Oryza sativa Japonica Group) (protein)
chain: MSSYVTTPHHHHHHGCCSGSRRLQAPAPPARPRLVVAAAARHVALPPRRAVASRAMSAEAPLGVAPAAAEEEMAAVVDEMAEEAAVWCAVHGLVVGDRAEPRSGTIPGVGLVHAPFALLPTRFPASFWKQARELAPIFNDLVDRVSLDGEFLQDSLSRTRQVDDFTSRLLDIHAKMMEVNKEEDIRLGLHRSDYMLDSGTNSLLQIELNTISSSFPGLSSLVSELHRTLLNRHGKVLGLDSKRIPQNWAATQFAEALSMAWTEFNNKSAVIMMVVQPEERNMYDQYWLINHLKESHGVKTIRKTLAQVEAEGQVLPDGTLVVDGQTVSVVYFRAGYSPNDYPSEAEWRARLLMEQSSAIKCPSISYHLVGTKKIQQELAKPNILERFLNNKEDIAKLRKCFAGLWSLDNEEIVKTAIEKPDLFVLKPQREGGGNNIYGYDLRETLVRLQKEQGEALAAYILMQRIFPRASLTHLVQGGVCFEDLTISELGIFGAYLRNKDKVVLNNQCGYLMRTKVSSSNEGGVAAGFAVLDSILLTDEW
notes: as for B1
B3 showed a Km [3] of 1280 ± 100 µM and a Vmax [3] of 0.759 µmol/min/mg.
